Measurements as given in patent US20080248054.

Target: Jun kinase JNK1, Q91Y86
Sequence (Q91Y86 whole entry): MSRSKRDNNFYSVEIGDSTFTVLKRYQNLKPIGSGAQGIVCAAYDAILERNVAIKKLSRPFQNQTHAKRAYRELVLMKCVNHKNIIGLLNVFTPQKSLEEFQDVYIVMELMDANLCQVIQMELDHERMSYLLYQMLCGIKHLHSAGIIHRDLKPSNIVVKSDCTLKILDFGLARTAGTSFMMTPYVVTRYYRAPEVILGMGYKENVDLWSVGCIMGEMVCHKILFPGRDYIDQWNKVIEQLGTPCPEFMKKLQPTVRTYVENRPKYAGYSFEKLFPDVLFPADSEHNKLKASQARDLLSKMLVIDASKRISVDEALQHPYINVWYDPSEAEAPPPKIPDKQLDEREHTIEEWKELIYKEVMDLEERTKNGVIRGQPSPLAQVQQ

B1: murine MINK (Misshapen/NIKs-related kinase) (protein)
chain: MGDPAPARSLDDIDLSALRDPAGIFELVEVVGNGTYGQVYKGRHVKTGQLAAIKVMDVTEDEEEEIKQEINMLKKYSHHRNIATYYGAFIKKSPPGNDDQLWLVMEFCGAGSVTDLVKNTKGNALKEDCIAYICREILRGLAHLHAHKVIHRDIKGQNVLLTENAEVKLVDFGVSAQLDRTVGRRNTFIGTPYWMAPEVIACDENPDATYDYRSDIWSLGITAIEMAEGAPPLCDMHPMRALFLIPRNPPPRLKSKKWSKKFTDFIDTCLIKTYLSRPPTEQLLKFPFIRDQPTERQVRIQLKDHIDRSRKKRGEKEETEYEYSGSEEEDDSHGEEGEPSSIMNVPGESTLRREFLRLQQENKSNSEALKQQQQLQQQQQRDPEAHIKHLLHQRQRRIEEQKEERRRVEEQQRREREQRKLQEKEQQRRLEDMQALRREEERRQAEREQEYKRKQLEEQRQSERLQRQLQQEHAYLKSLQQQQQQQQLQKQQQQQQQILPGDRKPLYHYGRGINPADKPAWAREVEERARMNKQQNSPLAKRSQAGAGPEPPISQASPSPPGPLSQTPPMQRPVEPQEGPHKSLVAHRVPLKPYAAPVPRSQSLQDQPTRNLAAFPASHDPDPAAVPTPTATPSARGAVIRQNSDPTSEGPGPSPNPPSWVRPDNEAPPKVPQRTSSIATALNTSGAGGSRPAQAVRASNPDLRRSDPGWERSDSVLPASHGHLPQAGSLERNRNRVGASTKLDSSPVLSPGNKAKPEDHRSRPGRPADFVLLKERTLDEAPKPPKKAMDYSSSSEEVESSEEEEEEGDGEPSEGSRDTPGGRSDGDTDSVTTMVVHDVEEISGTQPSYGGGTMVVQRTPEEERSLLLADSNGYTNLPDVVQPSHSPTENSKGQSPPTKDGGSDYQSRGLVKAPGKSSFTMFVDLGIYQPGGSGDTIPITALVGGEGGRLDQLQFDVRKGSVVNVNPTNTRAHSETPEIRKYKKRFNSEILCAALWGVNLLVGTENGLMLLDRSGQGKVYGLIGRRRFQQMDVLEGLNLLITISGKRNKLRVYYLSWLRNKILHNDPEVEKKQGWTTVGDMEGCGHYRVVKYERIKFLVIALKNSVEVYAWAPKPYHKFMAFKSFADLPHRPLLVDLTVEEGQRLKVIYGSSAGFHAVDVDSGNSYDIYIPVHIQSQITPHAIIFLPNTDGMEMLLCYEDEGVYVNTYGRIIKDVVLQWGEMPTSVAYICSNQIMGWGEKAIEIRSVETGHLDGVFMHKRAQRLKFLCERNDKVFFASVRSGGSSQVYFMTLNRNCIMNW
levels of phosphorylated JNK in DP thymocytes after CD3/CD28 ligation (Western blot, anti-phospho-JNK1): MINK-deficient DP thymocytes express markedly reduced levels of phosphorylated JNK compared with control mice after CD3/CD28 ligation
